Assay results as given in FireProtDB (doi:10.1021/bi00458a027).
Several values for one entry are separate records, joined by “and”; a condition that tells them apart may be missing. Equal values may be shown once.

Conditions: Escherichia coli (strain K12), pH 7.8, Urea, CD, Potassium phosphate 10 mM, whole UniProt chain shown

B1: Tryptophan synthase alpha chain wild type, P0A877 (protein)
chain: MERYESLFAQLKERKEGAFVPFVTLGDPGIEQSLKIIDTLIEAGADALELGIPFSDPLADGPTIQNATLRAFAAGVTPAQCFEMLALIRQKHPTIPIGLLMYANLVFNKGIDEFYAQCEKVGVDSVLVADVPVEESAPFRQAALRHNVAPIFICPPNADDDLLRQIASYGRGYTYLLSRAGVTGAENRAALPLNHLVAKLKEYNAAPPLQGFGISAPDQVKAAIDAGAAGAISGSAIVKIIEQHINEPEKMLAALKVFVQPMKAATRS
With B1 the denaturant m value (4 °C) was 3.1 kcal/mol/M and 1.9 kcal/mol/M, the “denaturant midpoint (higher = more stable)” value (4 °C) was 1.63 M and 3.17 M and the unfolding free energy (4 °C) was 20.9 kJ/mol and 25.1 kJ/mol. For the same protein, the denaturant m value (25 °C) was 1.2 kcal/mol/M, the “denaturant midpoint (higher = more stable)” value (25 °C) was 4.18 M and the unfolding free energy (25 °C) was 20.9 kJ/mol.
